Measured values from the RNAGym collection of RNA variant scans (doi:10.1073/pnas.2313332121).
Variants at the floor of the assay were thinned out.

B1: TPR 5TU (parent)
chain: GGAUCUUCUCGAUCUAACAAAAAAGACAAAUCUGCCACAAAGCUUGAGAGCAUCUUCGGAUGCAGAGGCGGCAGCCUUCGGUGGCGCGAUAGCGCCAACGUUCUCAACUAUGACACGCAAAACGCGUGCUCCGUUGAAUGGAGUUUAUCAUG

Variants of: B1
Experiment: polymerase ribozyme fitness, log enrichment relative to wild type (log ratio); higher = more active; in vitro selection for triplet polymerase activity
Method in brief: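 Mutant libraries of both subunits of a heterodimeric triplet polymerase ribozyme were PCR-built, transcribed, and selected once in triplicate, with frozen incubation at −7 °C and capture of gel-excised extended constructs on streptavidin beads before RT-PCR. Illumina sequencing of input and output libraries was filtered to genotypes with ≥10 input reads and ≥1 read per output. Fitness is the logarithm of genotype enrichment over wild-type enrichment, using inverse-variance-weighted replicate averages. The logarithm is base 2.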

Point of comparison: A52G C85U, “polymerase ribozyme fitness (log ratio)” value -0.204. Against it:
- A52C C57U G86U C99U C118U C125G G143A U151A — lower, ≤ -4.2
- G50C U134A — lower, -3.17
- A52G G92A — lower, -3.13
- A52G G92C — lower, -1.46
- A52C C69A C87U U90C A142U — lower, ≤ -4.2
- C51G G83A U134C — lower, -3.62
- A52G G59A G92A — lower, -3.59
- A52G G74C C87A A113U C125A G140U — lower, ≤ -4.2
- A52G G58U — within 0.2 log units, -0.0148
- G50U G126C A138U — lower, ≤ -4.2
- A52C C85A C93U C96G A121C U146C — lower, ≤ -4.2
- G50U C93G — lower, -3.35
- C51A G136A — within 0.2 log units, -0.23
- U53A G70C C76A G86U A98U — lower, ≤ -4.2
- C51A A52C C75A G83U G88C A91G C123G G126U A147U U151G — lower, ≤ -4.2
- C51A G124A — higher, -0.00389
- A52U U101G — lower, -2.22
- C51A C96U A97U — lower, -2.73
- C51A G94C A107U — lower, ≤ -4.2
- G50U A122G U148A — lower, -3.37
- C51U G84A G117C U135A — lower, -0.541
- G50U C105U — higher, 0.638
- U53A C99U U134A — lower, -3.7
- C51G G88A — lower, ≤ -4.2
- C51A C75U A98U — lower, -3.28
- C51U A52G C76A A89G A97C C105U A119C G141U — lower, ≤ -4.2
- A52C A142G — lower, -1.98
- U53A C87A A89U G141C — lower, ≤ -4.2
- A52C C108A — lower, ≤ -4.2
- U53A A73G G74C C85A U90C — lower, ≤ -4.2
- A52G A106G G143A — lower, -0.542
- U53A C85G G133C A150C — lower, ≤ -4.2
- A52G A142U — lower, -0.597
- A52U G94A G133U G143U — lower, -3.88
- C51U C85G A106G — lower, -2.8
- A52G G141U — higher, 1
- A52G C54A C69A C87G U90C G100U C103A C105G — lower, ≤ -4.2
- C51G G58U C93G C123U — lower, ≤ -4.2
- C51G U55G C108A A119U G124A G141A U146A — lower, ≤ -4.2
- C51U C96G C132A — lower, -3.26
- A52C U56C C103G G143C — lower, -4.12
- G50C U56A G59C — lower, -3.03
- C51A C95U A119G — lower, -1.34
- C51G U53A G83C C118U G128A — lower, ≤ -4.2
- C51U C95G C105G G117U — lower, -3.53
- C51A A60G A89U — lower, -1.65
- A52G A106U U135A — lower, -1.7
- C51A U61A C95U — lower, -2.06
- A52G C125U C131U G143U U146G — lower, ≤ -4.2
- A52G G62A C76U U145A — lower, -2.04
- A52U U53A C57A G58C A89U — higher, 0.000593
- G50U G84A U148G — lower, ≤ -4.2
- U53A C118U U134C G141A U146C — lower, -0.702
- A52C G67A G74U G86U C93U A115G — lower, ≤ -4.2
- U53A C96G — lower, -2.55
- A52U U55A U56G A66G C99A C132U — lower, ≤ -4.2
- A52C C93U U102G — lower, ≤ -4.2
- C51U C85U — lower, -0.8
- A52G C72U G81A G86A C103G A122C — lower, ≤ -4.2
- U53A C54U C85G — lower, -2.55
- C51U C69G G94C U146C — lower, -1.9
- C51U C93G A120C G143C — lower, -4.17
- C51U G86C — lower, -2.98
- U53A C72G C85U U127A — lower, ≤ -4.2
- A52C A60C — lower, -2.71
- C51U U134C — lower, -0.745
- A52C C75U C85G C95G — lower, ≤ -4.2
- A52G U56G G86A C95U A142C — lower, ≤ -4.2
- U53A C93G A98G — lower, ≤ -4.2
- G50U C54G — lower, -1.98
- G50U C95G U104A — lower, -1.95
- A52U U109G — lower, -3.48
- C51U G58A G92C G136A U148C — lower, -3.3
- A52C C85U A121C U134C A142C — lower, -2.29
- C51U C103A — lower, -1.29
- A52C A66G C72A A97U C99A — lower, ≤ -4.2
- G50U G58A — higher, 0.88
- U53A C76A G84C A122U — lower, ≤ -4.2
- U53A C54A U82A G141C — lower, -2.84
- A52U G68A U82G G133U A137C A142C — lower, ≤ -4.2
- A52C G71C — lower, ≤ -4.2
- G50U G81A C96G A142U — lower, -2.59
- U53A C76U — lower, -1.36
- A52C U53G C72U G83A G124A — lower, ≤ -4.2
- C51A G92U — lower, -1.06
- C51U G68U C87U U145C — lower, ≤ -4.2
- A52U C79A A110U C116U A120U C131G — lower, ≤ -4.2
- A52U U53A C57A G81U G83C C103G G126A — lower, ≤ -4.2
- A52U G80C G126A G133C — lower, ≤ -4.2
- A52U U77G G84C G128A G143A — lower, ≤ -4.2
- G50U G83A A97U A98U — higher, 0.0748
- A52G A150C — lower, -3.43
- A52G C93U — lower, -1.74
- A52G C93A — lower, -3.25
- A52G C93G — lower, -3.95
- A52C C76G — lower, ≤ -4.2
- A52C C76A — lower, ≤ -4.2
- U53A C85U A137G A142C — lower, -3.93
- C51U C87U C103A C116A — lower, -2.08
- C51A G94C — lower, -1.47
- A52G C69U G143A — lower, -2.71
- G50U U78A — lower, ≤ -4.2
- A52G A66C G84C C85A G126U — lower, ≤ -4.2
- A52U U61G G80C C87G G94U A121U — lower, ≤ -4.2
- U53A G58C A66C G84A A91G U102G A119U C132A — lower, ≤ -4.2
- A52U C96U G100A A147C — lower, ≤ -4.2
- A52U C129U — lower, -2.91
- C51A G81A A147G U148G — lower, ≤ -4.2
- C51A C96U — lower, -1.91
- C51U C95A U104C C116G — within 0.2 log units, -0.304
- A52C C93G A122G — lower, -3.18
- A52U C123G — lower, -1.97
- A52C C57U — lower, -1.24
- A52C C57G — lower, -1.79
- C51U A66C G74A U90G U111G — lower, ≤ -4.2
- A52U A137G — lower, -2.89
- A52G G100U — lower, -3.98
- A52G G136U A142G — lower, -3.58
- U53A C95G C96G U146A — lower, -3.91
- A52G C57A C79U C85A C116U A122G — lower, ≤ -4.2
- A52G C79G — lower, -3.71
- A52G C69U A106C C125U — lower, -4.12
- A52C G88A — lower, -3.57
- G50U U55A G126U — within 0.2 log units, -0.316
- A52U — lower, -1.49
- A52G — lower, -0.491
- A52C — lower, -0.883
- C51G A60G — lower, -1.74
- C51A C72U G74C C93A G141A — lower, ≤ -4.2
- A52G U77G A91C — lower, ≤ -4.2
- C51U G62C G70A A115U C116A — lower, ≤ -4.2
- G50U C54U C93A G136U — lower, -4.07
- A52C G80C G83U — lower, ≤ -4.2
- C51G G62U G92A C96A — lower, ≤ -4.2
- G50U C72A A89C G92A C129A A137G A150U — lower, ≤ -4.2
- C51U C93G C116U G141A — lower, -3.75
- U53A G59C A60G G84A — lower, -1.76
- A52C G152U — lower, -3.45
- A52C C85G G92U — lower, ≤ -4.2
- C51G U53G C75A C103A — lower, ≤ -4.2
- C51G U56A G68A C93U A97G U104G G143A U146A — lower, ≤ -4.2
- U53A C76G G92A A107C G124U C149A — lower, ≤ -4.2
- A52C U56A C96A A110G — lower, -3.99
- U53A C57G C95G — lower, -4.01
- A52G C85G — lower, -2.16
- A52G C96G G112C — lower, ≤ -4.2
- C51A U55G C95U C105A G117U — lower, ≤ -4.2
- A52C C132U — lower, -2.24
- C51A C63A G88U G126A — lower, ≤ -4.2
- C51G G94A U135A — lower, -3.11
- C51A C63A U82A — lower, -0.419
- G50U C95A U109G — lower, -3.26
- G50U A91U — lower, ≤ -4.2
- G50U A91G — lower, -2.52
- A52C C87U A89C C99U — lower, -4.14
- G50U C57G — higher, 0.0255
- A52G G70A C96A U102G C129G G143A U146A — lower, ≤ -4.2
- G50U G74A C85U — lower, -3.88
- A52G G58C G68C — lower, ≤ -4.2
- C51U G58C G62U C69U C96G — lower, -3.67
- A52C U53A U148G — lower, ≤ -4.2
- A52C C69G G74C — lower, ≤ -4.2
- A52C C54U U78A C87U U135A — lower, ≤ -4.2
- C51A U56A C95A A98U — lower, -1.46
- G50U A150G — lower, -2.11
- A52C U55A C72U A98U — lower, -3.14
